Experimental data: US20210332109A1 (TANAKA KIKINZOKU KOGYO K K, published 2021)

Biological target: T1, protein VZV gE (amino acid sequence at positions 48 to 88) (varicella-zoster virus)
T1 peptide: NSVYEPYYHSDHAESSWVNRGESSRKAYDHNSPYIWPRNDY
Assay: ELISA, peptide coated on the plate, antibody at 5 ug/mL
Description: After 16 hours, the gE solution was removed, and the well was washed three times with 300 μL of PBST (0.05% Tween 20 in PBS). The liquid remaining in the well was removed by tapping on a paper towel.
As a blocking solution, 300 μL of 5% BSA in PBST (BSA: manufactured by Oriental Yeast Co., Ltd.) was added, followed by incubation at 37° C. for 1 hour. Thereafter, the BSA solution was removed, and the well was washed three times with 300 μL of PBST (0.05% Tween 20 in PBS). The liquid remaining in the well was removed by tapping on a paper towel. […] Thereafter, the primary antibody solution was removed, and the well was washed three times with 300 μL of PBST (0.05% Tween 20 in PBS).

B1: Antibody 18 (antibody, V domains shown)
VH: EVQLQESGPGLVKPSQSLSLTCTVTGYSITSDYAWNWIRQFPGNKLEWMGYISYSGNSSYNPSLKSRISFTRDTSKNQFFLQLNSVTTEDTATYYCARDGSRGFDYWGQGTTLTVSS
VL: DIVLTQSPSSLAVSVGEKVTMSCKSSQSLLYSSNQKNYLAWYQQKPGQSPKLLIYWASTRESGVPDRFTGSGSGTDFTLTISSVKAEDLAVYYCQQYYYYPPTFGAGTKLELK
notes: also called antibody (II); monoclonal antibody produced by Hybridoma 18
- binding result: binds
